What was measured:
[1] = target: T1, rHA subtype H7 (A/Netherlands/219/03) (Influenza A virus …, UniProt Q6VMK1); assay: ELISA; details: both partners purified
T1 construct: source: bought: Protein Sciences Corp. (baculovirus vectors in insect cells)

[2] = target: T2, rHA subtype H1 (A/New Caledonia/20/99) (Influenza A virus A/New …, UniProt Q6WG00, strain); assay: ELISA; details: both partners purified
T2 construct: source: bought: Protein Sciences Corp. (baculovirus vectors in insect cells)

B1: CR6323 human IgG1 (antibody, V domains shown)
VH: EVQLVESGAEVKKPGSSVKVSCKASGGTFSSYGISWVRQAPGQGLEWMGDIIGMFGSTNYAQNFQGRLTITADESTSTAYMELSSLRSEDTAVYYCARSSGYYPAYLPHWGQGTLVTVSS
VL: not shown
binding result [1]: no binding (tested: 5 µg/ml IgG1)
binding result [2]: binds

From publication PMC2596486 (PLoS ONE, 2008)
